The values below come from the Human Domainome abundance scans (Beltran et al. 2025).

± gives the uncertainty stated by the source.

B1: Friend leukemia integration 1 transcription factor, residues 116 to 197; numbered along this chain, Q01543 (parent)
chain: NMTTNERRVIVPADPTLWTQEHVRQWLEWAIKEYSLMEIDTSFFQNMDGKELCKMNKEDFLRATTLYNTEVLLSHLSYLRES

Variants of B1 are the subject of this data set. The data set can be described thus: abundance fitness (aPCA) (normalised: wild type 0, dead -1); higher = more abundant; growth selection in yeast, the domain comes from the species named. Conditions: Homo sapiens.
As to H75Y, the abundance fitness was -0.201 ± 0.33.

Regarding M37T, the abundance fitness was 0.055 ± 0.079.

Regarding M37Q, the abundance fitness was -0.242 ± 0.12.

With M37L, the abundance fitness is -0.001 ± 0.065.

In the case of Q45W, the abundance fitness was determined as 0.056 ± 0.065.

On to Q45R, for which the abundance fitness was 0.091 ± 0.049.

Take Q45K: the abundance fitness was -0.048 ± 0.096.

With Q45T, the abundance fitness is -0.068 ± 0.08.

On to H22R, for which the abundance fitness is -0.266 ± 0.088.

Take H22T: the abundance fitness was -0.274 ± 0.092.

As to H22K, the abundance fitness was -0.199 ± 0.047.

Consider H22L, for which the abundance fitness was -0.386 ± 0.069.

Take H22M: the abundance fitness is 0.028 ± 0.087.

On to H22V, for which the abundance fitness is -0.17 ± 0.1.

Take L76H: the abundance fitness was -0.841 ± 0.35.

As to L76T, the abundance fitness is -0.916 ± 0.33.

For L76P, the abundance fitness is -0.7 ± 0.27.

Turning to L76M, the abundance fitness is -0.218 ± 0.12.

With P15K, the abundance fitness is -1.09 ± 0.31.

Turning to P15S, the abundance fitness was -0.565 ± 0.085.

Consider P15G, for which the abundance fitness is -1.07 ± 0.12.

Regarding E6G, the abundance fitness is -0.179 ± 0.09.

Regarding E6Y, the abundance fitness was -0.308 ± 0.21.

As to E6A, the abundance fitness is -0.185 ± 0.095.

E6L: the abundance fitness turned out to be 0.001 ± 0.068.

For the variant E6V, the abundance fitness was -0.092 ± 0.082.

Consider E6T, for which the abundance fitness was -0.013 ± 0.13.

Consider E33T, for which the abundance fitness is -0.243 ± 0.089.

For the variant E33G, the abundance fitness was -0.8 ± 0.14.

For the variant E33R, the abundance fitness is -0.06 ± 0.058.

Consider G49Q, for which the abundance fitness is -0.977 ± 0.49.

As for L52P, the abundance fitness was -0.627 ± 0.13.

L52C: the abundance fitness is -0.692 ± 0.38.

Turning to L52G, the abundance fitness is -0.915 ± 0.15.

In the case of L52E, the abundance fitness was -0.976 ± 0.29.

As to L27C, the abundance fitness was -0.384 ± 0.38.

Regarding L27T, the abundance fitness was -0.383 ± 0.2.

For L27F, the abundance fitness turned out to be 0.079 ± 0.14.

With L27V, the abundance fitness came out at 0.035 ± 0.093.

Regarding L27W, the abundance fitness was -0.856 ± 0.19.

For the variant V9T, the abundance fitness was 0.039 ± 0.098.

For the variant V9R, the abundance fitness was 0.172 ± 0.059.

Turning to V9C, the abundance fitness came out at 0.046 ± 0.17.

Turning to V9K, the abundance fitness came out at 0.116 ± 0.098.

Take I10Q: the abundance fitness turned out to be 0.03 ± 0.1.

In the case of I10F, the abundance fitness was -0.216 ± 0.16.

On to I10M, for which the abundance fitness was -0.012 ± 0.1.

For I10N, the abundance fitness is 0.103 ± 0.23.

Take I10S: the abundance fitness was 0.231 ± 0.12.

As for K57M, the abundance fitness stood at 0.008 ± 0.091.

Take K57S: the abundance fitness is -0.319 ± 0.084.

K57Q: the abundance fitness is 0.043 ± 0.074.

Regarding K57F, the abundance fitness was -0.451 ± 0.21.

Consider K57H, for which the abundance fitness was -0.52 ± 0.24.

With L61V, the abundance fitness is -0.13 ± 0.05.

In the case of L61I, the abundance fitness is -0.268 ± 0.12.

Take L61P: the abundance fitness is -1.07 ± 0.34.

For L61S, the abundance fitness is -0.105 ± 0.07.

As to F43C, the abundance fitness is -0.35 ± 0.2.

As for F43L, the abundance fitness came out at 0.077 ± 0.062.

As to F43I, the abundance fitness was -0.164 ± 0.13.

Turning to F43K, the abundance fitness was -0.118 ± 0.12.

Regarding F43T, the abundance fitness was -0.11 ± 0.1.

Take F43R: the abundance fitness is -0.091 ± 0.059.

For the variant F43Q, the abundance fitness is 0.004 ± 0.074.

On to F43G, for which the abundance fitness is -0.204 ± 0.086.

With F43M, the abundance fitness is -0.019 ± 0.091.

For F43V, the abundance fitness is -0.118 ± 0.072.

In the case of E58T, the abundance fitness was -0.053 ± 0.1.

For the variant E58R, the abundance fitness is -0.032 ± 0.064.

As for E58Y, the abundance fitness turned out to be 0.015 ± 0.22.

Regarding F60Q, the abundance fitness was -0.938 ± 0.35.

F60T: the abundance fitness was -0.918 ± 0.26.

Regarding F60R, the abundance fitness is -1 ± 0.17.

Take F60P: the abundance fitness is -0.921 ± 0.11.

As for F60C, the abundance fitness was -0.545 ± 0.21.

On to F60M, for which the abundance fitness is -0.277 ± 0.12.

Regarding M2D, the abundance fitness was -0.545 ± 0.48.

Take M2W: the abundance fitness was -0.057 ± 0.14.

Turning to M2G, the abundance fitness came to 0.119 ± 0.12.

With M2E, the abundance fitness is -0.361 ± 0.18.

For the variant E28W, the abundance fitness is -0.285 ± 0.11.

Take E28Y: the abundance fitness is -0.12 ± 0.25.

In the case of E28C, the abundance fitness was found to be 0.009 ± 0.16.

For the variant E28F, the abundance fitness is -0.366 ± 0.28.

As for E28A, the abundance fitness was determined as 0.006 ± 0.11.

For the variant N56D, the abundance fitness is -0.033 ± 0.13.

As for N56L, the abundance fitness was -0.129 ± 0.052.

As to N56R, the abundance fitness is -0.226 ± 0.071.

Take N56H: the abundance fitness was 0.12 ± 0.11.

In the case of N56S, the abundance fitness is -0.043 ± 0.059.

Regarding N56K, the abundance fitness stood at 0.125 ± 0.14.

With T65N, the abundance fitness is -0.042 ± 0.17.

D40G: the abundance fitness is -0.631 ± 0.076.

Turning to D40P, the abundance fitness was -0.162 ± 0.11.

With D40W, the abundance fitness is -0.887 ± 0.21.

For the variant D40S, the abundance fitness is -0.217 ± 0.092.

For V11R, the abundance fitness turned out to be 0.232 ± 0.044.

For V11Y, the abundance fitness came to 0.031 ± 0.1.

With V11A, the abundance fitness worked out at 0.118 ± 0.07.

On to V11N, for which the abundance fitness worked out at 0.094 ± 0.1.

Regarding V11K, the abundance fitness was 0.148 ± 0.1.

Consider V11E, for which the abundance fitness came out at 0.015 ± 0.067.

In the case of Q20R, the abundance fitness was -0.077 ± 0.084.

For Q20M, the abundance fitness came out at 0.046 ± 0.099.

Consider Q20L, for which the abundance fitness was -0.289 ± 0.08.

In the case of Q20A, the abundance fitness was -0.126 ± 0.11.

T19N: the abundance fitness was -0.263 ± 0.17.

For T19S, the abundance fitness was -0.113 ± 0.13.

With T19W, the abundance fitness is -0.796 ± 0.16.

On to T19V, for which the abundance fitness was -0.351 ± 0.12.

For K54V, the abundance fitness was -0.14 ± 0.063.

Turning to K54N, the abundance fitness was determined as 0.02 ± 0.18.

As for K54M, the abundance fitness came out at 0.021 ± 0.073.

K54T: the abundance fitness was -0.204 ± 0.085.

Regarding W18D, the abundance fitness is -0.803 ± 0.31.

Consider W18G, for which the abundance fitness was -0.458 ± 0.1.

Regarding R62I, the abundance fitness is -0.728 ± 0.43.

With R62S, the abundance fitness was found to be 0.017 ± 0.059.

With R62Q, the abundance fitness stood at 0.071 ± 0.1.

For R62E, the abundance fitness was -0.01 ± 0.082.

Consider R62H, for which the abundance fitness is -0.073 ± 0.18.

With R7Q, the abundance fitness was -0.092 ± 0.14.

Consider R7C, for which the abundance fitness was -0.06 ± 0.4.

Turning to R7P, the abundance fitness is -0.045 ± 0.1.

In the case of R7F, the abundance fitness was -0.179 ± 0.23.

For R7G, the abundance fitness was -0.135 ± 0.092.

As for T41K, the abundance fitness came out at 0.011 ± 0.093.

As to A63H, the abundance fitness is -0.161 ± 0.12.

On to A63V, for which the abundance fitness was found to be 0.003 ± 0.062.

With A63E, the abundance fitness was -0.213 ± 0.087.

With A63D, the abundance fitness was 0.012 ± 0.32.

For the variant Y34M, the abundance fitness is -0.185 ± 0.1.

For Y34H, the abundance fitness is -0.106 ± 0.2.

As for Y34Q, the abundance fitness is -0.346 ± 0.13.

For Y34F, the abundance fitness turned out to be 0.109 ± 0.36.

On to F44H, for which the abundance fitness is -0.884 ± 0.18.

With F44R, the abundance fitness is -1.05 ± 0.1.

Regarding F44M, the abundance fitness was -0.331 ± 0.071.

On to S35W, for which the abundance fitness was -0.509 ± 0.14.

Regarding S35R, the abundance fitness is -0.156 ± 0.066.

On to S35M, for which the abundance fitness is -0.271 ± 0.073.

For S35V, the abundance fitness was -0.405 ± 0.08.

Regarding S35F, the abundance fitness is -0.33 ± 0.15.

As to S35L, the abundance fitness was -0.335 ± 0.069.

Consider L73K, for which the abundance fitness is -0.199 ± 0.083.

As to L73M, the abundance fitness is -0.061 ± 0.12.

Consider L73Y, for which the abundance fitness was -0.281 ± 0.26.

S82F: the abundance fitness was -0.112 ± 0.27.

With Q25V, the abundance fitness turned out to be 0.078 ± 0.091.

Regarding Q25T, the abundance fitness is -0.045 ± 0.081.

In the case of Q25A, the abundance fitness is -0.066 ± 0.091.

Regarding Q25G, the abundance fitness was -0.039 ± 0.073.

Take V23T: the abundance fitness is -0.23 ± 0.13.

For V23D, the abundance fitness is -0.759 ± 0.3.

V23A: the abundance fitness was -0.632 ± 0.14.

Consider V23Q, for which the abundance fitness is -0.92 ± 0.3.

For the variant T69K, the abundance fitness is -0.816 ± 0.32.

For T69F, the abundance fitness is -0.799 ± 0.29.

With T69Q, the abundance fitness was -0.744 ± 0.18.

For T69C, the abundance fitness is -0.214 ± 0.12.

For the variant T69M, the abundance fitness was -0.444 ± 0.086.

As for M47K, the abundance fitness is -0.161 ± 0.12.

Turning to M47L, the abundance fitness is -0.004 ± 0.063.

As for M47Y, the abundance fitness is 0.092 ± 0.17.

Turning to E38L, the abundance fitness is -0.04 ± 0.061.

Take E38M: the abundance fitness is -0.09 ± 0.12.
